Results reported in PMC5395218, “Biochemical and structural investigations on phosphoribosylpyrophosphate synthetase from Mycobacterium smegmatis” (PLoS ONE, 2017).

T1: phosphoribosylpyrophosphate synthetase (MsPrsA) (Mycolicibacterium smegmatis, UniProt A0R3C8)
T1 construct: gene prs; recombinant MsPrsA, hexamer
T1 sequence (A0R3C8 1-326): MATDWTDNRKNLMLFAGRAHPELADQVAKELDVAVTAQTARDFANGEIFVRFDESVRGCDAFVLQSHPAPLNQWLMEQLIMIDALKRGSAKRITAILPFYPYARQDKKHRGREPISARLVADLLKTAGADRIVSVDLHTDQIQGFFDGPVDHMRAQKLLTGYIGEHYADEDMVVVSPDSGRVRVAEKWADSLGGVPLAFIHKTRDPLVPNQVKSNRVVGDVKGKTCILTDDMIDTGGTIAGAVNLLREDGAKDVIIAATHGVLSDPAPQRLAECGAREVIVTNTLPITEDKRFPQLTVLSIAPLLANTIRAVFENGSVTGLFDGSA

B1: Mycobacterium smegmatis phosphoribosylpyrophosphate synthetase (PrsA) (enzyme, M. smegmatis mc2155, UniProt A0R3C8 1-326, looked up)
chain: T1 sequence (A0R3C8 1-326)
notes: Phosphoribosylpyrophosphate synthetase (PrsA) of M. smegmatis mc2155; the crystal model holds Arg9-Gly316 without Arg204-Lys213; pCold I is recalled to add an N-terminal translation enhancing element, His6 and a Factor Xa site; also called MsPrsA; M. smegmatis PrsA

Experiments:
[1] = target: T1, phosphoribosylpyrophosphate synthetase (MsPrsA); assay: OPRT-coupled spectrophotometric assay, dose response on purified enzyme; type: biochemical
[2] = target: the molecule itself; assay: SEC; analytical gel filtration on Sephacryl S200HR 16/60, MsPrsA 1 mg/ml in Tris-HCl 20mM pH 8.0, NaCl 50mM; column calibrated with Blue Dextrane, catalase, aldolase, albumin, ovoalbumin; elution volume consistent with about 221 KDa
purified protein = substrate: Nc1ncnc2c1ncn2[C@@H]1O[C@H](COP(=O)(O)OP(=O)(O)OP(=O)(O)O)[C@@H](O)[C@H]1O; assay: purified protein; type: biochemical, Mycolicibacterium smegmatis; conditions: Mg2+, inorganic phosphate

| IC50 [1] | Molecule | stoichiometry N [2] | K0.5 (purified protein) | Vmax (purified protein) | kcat (purified protein) | kcat/Km (purified protein) |
| --- | --- | --- | --- | --- | --- | --- |
| 174 ± 46 µM | Nc1ncnc2c1ncn2[C@@H]1O[C@H](COP(=O)(O)OP(=O)(O)O)[C@@H](O)[C@H]1O [ADP] | – | – | – | – | – |
| – | B1 | 6 | 0.058 ± 0.005 mM | 0.006 µmol/min | 83.5 ± 4.1 s⁻¹ | 1.44e+06 ± 53800 M⁻¹ s⁻¹ |
